Source: US20150218538A1 (UNIVERSITY OF NORTH CAROLINA AT CHAPEL HILL, published 2015)
Ends that are not written are not given here.

Key:
[1] = molecular target: T1, Gαq activated with aluminum fluoride (Gαq-GDP plus aluminum fluoride) (UniProt P50148 35-359); test: cell-based or functional assay
T1 sequence (looked up): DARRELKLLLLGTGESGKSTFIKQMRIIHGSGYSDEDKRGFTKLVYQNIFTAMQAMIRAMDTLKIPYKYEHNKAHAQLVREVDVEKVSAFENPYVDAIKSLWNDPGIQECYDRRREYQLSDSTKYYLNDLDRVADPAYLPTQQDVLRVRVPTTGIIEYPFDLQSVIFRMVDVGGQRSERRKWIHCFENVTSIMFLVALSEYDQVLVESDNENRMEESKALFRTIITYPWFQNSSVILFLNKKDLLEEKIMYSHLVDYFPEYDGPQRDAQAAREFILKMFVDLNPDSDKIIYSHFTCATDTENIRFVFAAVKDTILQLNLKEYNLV

[2] = molecular target: chimeric form of Gαq (Gαq/i), activated with aluminum fluoride; test: fluorescence polarization in 384-well plates; 30 µM unlabeled 27-mer, 200 nM TAMRA-27-mer, 1.5 µM Gαq/i with aluminum fluoride; competitor: TAMRA-27-mer
[3] = molecular target: T1, Gαq activated with aluminum fluoride …; test: fluorescence polarization; Gαq activated with aluminum fluoride titrated into TAMRA-labeled peptide
Text: (§1) Quantification of Gαq binding to peptides corresponding to the HTH of PLβ3. […] KD and IC₅₀ values were derived from three independent experiments.

[4] = molecular target: T1, Gαq activated with aluminum fluoride …; test: fluorescence polarization competition; unlabeled PLC-β3 added to labeled 25-mer (400 nM) and Gαq (4 µM); competitor: TAMRA-25-mer
Text: as §1

A phospholipase activity of PLC-β3 activated by Gαq in lipid vesicles (IC50) [1] of 100 nM was found for “peptide corresponding to the HTH of PLC-β3 and containing an I860A substitution (from UniProt Q01970 852-878)” in this work.

A percent decrease in fluorescence polarization [2] of 50 percent was found for “unlabeled 27-mer (from UniProt Q01970 852-878) (peptide)” in this work.

B1: TAMRA-25-mer (25-residue peptide spanning the entire helix-turn-helix of PLC-β3, labeled with TAMRA) (peptide)
peptide: HQDYAEALINPIKHVSLMDQRARQL
modifications: also: TAMRA label, position not given here
notes: also called labeled 25-mer; 25 residue peptide of PLC-β3
For B1, the Kd [3] was roughly 6000 nM and the “phospholipase activity of PLC-beta3 activated by G-alpha-q in lipid vesicles, as a function of TAMRA-25-mer concentration (IC50)” value [1] was roughly 1 microMolar.

B2: full-length PLC-β3 (wild type) (enzyme, UniProt Q01970 2-1234, looked up)
chain: AGAQPGVHALQLEPPTVVETLRRGSKFIKWDEETSSRNLVTLRVDPNGFFLYWTGPNMEVDTLDISSIRDTRTGRYARLPKDPKIREVLGFGGPDARLEEKLMTVVSGPDPVNTVFLNFMAVQDDTAKVWSEELFKLAMNILAQNASRNTFLRKAYTKLKLQVNQDGRIPVKNILKMFSADKKRVETALESCGLKFNRSESIRPDEFSLEIFERFLNKLCLRPDIDKILLEIGAKGKPYLTLEQLMDFINQKQRDPRLNEVLYPPLRPSQARLLIEKYEPNQQFLERDQMSMEGFSRYLGGEENGILPLEALDLSTDMTQPLSAYFINSSHNTYLTAGQLAGTSSVEMYRQALLWGCRCVELDVWKGRPPEEEPFITHGFTMTTEVPLRDVLEAIAETAFKTSPYPVILSFENHVDSAKQQAKMAEYCRSIFGDALLIEPLDKYPLAPGVPLPSPQDLMGRILVKNKKRHRPSAGGPDSAGRKRPLEQSNSALSESSAATEPSSPQLGSPSSDSCPGLSNGEEVGLEKPSLEPQKSLGDEGLNRGPYVLGPADREDEEEDEEEEEQTDPKKPTTDEGTASSEVNATEEMSTLVNYIEPVKFKSFEAARKRNKCFEMSSFVETKAMEQLTKSPMEFVEYNKQQLSRIYPKGTRVDSSNYMPQLFWNVGCQLVALNFQTLDVAMQLNAGVFEYNGRSGYLLKPEFMRRPDKSFDPFTEVIVDGIVANALRVKVISGQFLSDRKVGIYVEVDMFGLPVDTRRKYRTRTSQGNSFNPVWDEEPFDFPKVVLPTLASLRIAAFEEGGKFVGHRILPVSAIRSGYHYVCLRNEANQPLCLPALLIYTEASDYIPDDHQDYAEALINPIKHVSLMDQRARQLAALIGESEAQAGQETCQDTQSQQLGSQPSSNPTPSPLDASPRRPPGPTTSPASTSLSSPGQRDDLIASILSEVAPTPLDELRGHKALVKLRSRQERDLRELRKKHQRKAVTLTRRLLDGLAQAQAEGRCRLRPGALGGAADVEDTKEGEDEAKRYQEFQNRQVQSLLELREAQVDAEAQRRLEHLRQALQRLREVVLDANTTQFKRLKEMNEREKKELQKILDRKRHNSISEAKMRDKHKKEAELTEINRRHITESVNSIRRLEEAQKQRHDRLVAGQQQVLQQLAEEEPKLLAQLAQECQEQRARLPQEIRRSLLGEMPEGLGDGPLVACASNGHAPGSSGHLSGADSESQEENTQL
notes: mature; also called PLC-beta3; unlabeled PLC-β3
An IC50 [4] of roughly 1000 nM was found for B2 in this work.
